Assay results from patent publication US20250268984A1, “INTERFERON-BASED CANCER TREATMENT METHOD, AND PHARMACEUTICAL COMBINATION” (XIAMEN AMOYTOP BIOTECH CO., LTD., priority 2021, published 2025).

System: transplanted liver cancer H22
Assay: Example 13: different administration orders of interferon and gemcitabine, transplanted liver cancer H22 in mice
Type: in vivo, BALB/c mice
Conditions: PEG-mIFN-α4 only, 1 microgram per mouse s.c. once a week
Experimental: PEG-mIFN-α4 was administered by subcutaneous injection on the back of the neck, with a dose of 1 microgram per mouse. The administration began on the day after grouping. In the PEG-mIFN-α4 only group, PEG-mIFN-α4 was administered once a week. In the PEG-mIFN-α4 combined with gemcitabine (administered at the same time) group, PEG-mIFN-α4 and gemcitabine were administered on the same day, once a week. In the PEG-mIFN-α4 combined with gemcitabine (PEG-mIFN-α4 was administered 72 hours after gemcitabine) group, gemcitabine was given 3 days before PEG-mIFN-α4, once a week. PEG-mIFN-α4 combined with gemcitabine (gemcitabine was given 72 hours after PEG-mIFN-α4) group, PEG-mIFN-α4 was given first, and gemcitabine was given 3 days after, once a week. In the normal saline control group, an equal volume of normal saline was given. Gemcitabine was injected intraperitoneally at a dose of 60 mg/kg.
SAS 9.4 software was used to compare the differences in tumor incidence between groups, and the statistical tests were all two-sided tests.
The tumor incidence of each group was calculated based on the tumor volume greater than or equal to 62.5 mm^, which is determined as positive for tumor occurrence. […] Mice determined to be negative for tumor development were confirmed by dissection, and no solid tumor was found in the axilla. […]

B1: PEG-mIFN-α4: deglycosylated recombinant mouse interferon α4 modified with 40 kD Y-type polyethylene glycol succinimide ester (YPEG-NHS); SEQ ID NO: 6 (protein)
chain: CDLPHTYNLGNKRALTVLEEMRRLPPLSCLKDRKDFGFPLEKVDNQQIQKAQAILVLRDLTQQILNLFTSKDLSATWNATLLDSFCNDLHQQLNDLKACVMQEPPLTQEDSLLAVRTYFHRITVYLRKKKHSLCAWEVIRAEVWRALSSSTNLLARLSEEKE
modifications: 40 kD Y-type PEG; deglycosylated; peginterferon murine alpha 4
By day 151
  Median survival period (time after tumor inoculation, day): 38.0 days
Day 151 after tumor inoculation, tumor volume ≥62.5 positive
  tumor incidence: 100.0%
